Assay [1] deals with T1, mFc-cNKG2D (cynomolgus monkey, UniProt P61252 73-216).
T1 construct: extracellular domain; Made in house (Dragonfly Tx); also called recombinant cyno NKG2D extracellular domain (ECD); mFc-tagged cyno NKG2D dimer; not shown: mouse Fc tag
T1 sequence (looked up): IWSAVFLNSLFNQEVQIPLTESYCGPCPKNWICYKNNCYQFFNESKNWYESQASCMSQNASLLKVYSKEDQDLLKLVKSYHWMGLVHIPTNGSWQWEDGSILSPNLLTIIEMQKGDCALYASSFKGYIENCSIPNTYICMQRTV
The assay is described as follows: SPR Biacore 37 C; mFc-tagged cyno NKG2D dimer, TriNKET as analyte; kinetics fit. Background: In SPR one partner is held on a chip, and binding of the other changes the refractive index at the surface.

In assay [2] the target is T2, mFc-hNKG2D (human, UniProt P26718 73-216).
T2 construct: extracellular domain; Made in house (Dragonfly Tx); the order of tag and ECD follows the name mFc-hNKG2D; also called mFc-tagged human NKG2D; not shown: mouse Fc tag
T2 sequence (looked up): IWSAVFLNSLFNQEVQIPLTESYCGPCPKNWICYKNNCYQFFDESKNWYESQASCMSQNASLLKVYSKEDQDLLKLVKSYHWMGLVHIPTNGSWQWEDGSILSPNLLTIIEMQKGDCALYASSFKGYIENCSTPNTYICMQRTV
The assay is described as follows: SPR Biacore 8K 37 C; mFc-hNKG2D captured on anti-mFc chip, TriNKET as analyte; steady state fit; control, n=3.

In assay [3] the target is T2, mFc-hNKG2D. The assay is described as follows: SPR Biacore 8K 37 C; mFc-hNKG2D captured on anti-mFc chip, TriNKET as analyte; steady state fit; pH 8.0 control.
Description: (§1) Association was monitored for 60 seconds and dissociation was monitored for 60 seconds. Surfaces were regenerated between cycles with three pulses of 10 mM glycine-HCl, pH 1.7 injected for 20 seconds at 100 μL/min. HBS-EP+ (1×) buffer was used throughout the experiment. Data were analyzed using Biacore 8K Insight evaluation software (GE Healthcare).
Assay [4] has as its target T2, mFc-hNKG2D. The assay is described as follows: SPR Biacore 8K 37 C; mFc-hNKG2D captured on anti-mFc chip, TriNKET as analyte; steady state fit; after 2 wks 40 C at pH 8.0.
Description: as §1
For assay [5], the target named is T3, Human CD64 (human, UniProt P12314 16-288, biotinylated).
T3 construct: Bought recombinant receptor; also called hFcγRI; Human CD64 (FcγRI)
The assay is described as follows: SPR, human CD64 captured.

In assay [6] the target is T4, Human CLEC12A-His (human, UniProt Q5QGZ9 65-265).
T4 construct: Recombinant soluble protein made in house; also called hCLEC12A-His; hCLEC12A; not shown: His tag
T4 sequence: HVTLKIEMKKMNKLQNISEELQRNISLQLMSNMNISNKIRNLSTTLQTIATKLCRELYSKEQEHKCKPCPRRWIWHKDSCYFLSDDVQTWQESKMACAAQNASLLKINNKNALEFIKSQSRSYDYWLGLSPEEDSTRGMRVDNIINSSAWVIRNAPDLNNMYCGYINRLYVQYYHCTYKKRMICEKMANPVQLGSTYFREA
Kind of assay: SPR; control sample (pH 8 stress study).

For assay [7], the target named is T5, mFc-hNKG2D (human, UniProt P26718 73-216).
T5 construct: extracellular domain; Recombinant mFc-tagged NKG2D dimer, made in house; also called human NKG2D; not shown: mouse Fc tag
T5 sequence (looked up): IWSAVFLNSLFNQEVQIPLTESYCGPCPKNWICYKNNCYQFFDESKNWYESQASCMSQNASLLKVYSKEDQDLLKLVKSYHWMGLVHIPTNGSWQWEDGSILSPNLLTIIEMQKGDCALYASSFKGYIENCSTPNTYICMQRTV
Kind of assay: SPR; control sample (pH 8 stress study).

Assay [8] has as its target T6, Human CD16a V158 (human, UniProt P08637 17-208, biotinylated).
T6 construct: Bought recombinant receptor; also called hCD16a (V158); hFcγRIIIa V158
Kind of assay: SPR; control sample (pH 8 stress study).

In assay [9] the target is T5, mFc-hNKG2D. Kind of assay: SPR; sample after forced oxidation (0.02% H2O2, 24 h).
Assay [10] has as its target T6, Human CD16a V158. The description is as above.

Where “and” joins values, the source holds several entries; their conditions need not be identical. Equal values may be shown once.

Among the data in US20220119534A1 (DRAGONFLY THERAPEUTICS, published 2022) are Kd, koff and kon values, retold here.

T3 sequence (P12314 16-288 limits assumed): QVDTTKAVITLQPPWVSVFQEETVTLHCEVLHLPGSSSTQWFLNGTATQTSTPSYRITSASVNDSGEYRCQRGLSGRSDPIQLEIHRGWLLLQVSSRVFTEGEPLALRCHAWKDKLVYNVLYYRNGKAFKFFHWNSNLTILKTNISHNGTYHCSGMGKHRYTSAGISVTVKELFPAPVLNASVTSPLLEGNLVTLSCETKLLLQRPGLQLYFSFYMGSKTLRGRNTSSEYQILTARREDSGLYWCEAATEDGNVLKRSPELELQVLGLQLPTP
T6 sequence (P08637 17-208 F176V limits assumed): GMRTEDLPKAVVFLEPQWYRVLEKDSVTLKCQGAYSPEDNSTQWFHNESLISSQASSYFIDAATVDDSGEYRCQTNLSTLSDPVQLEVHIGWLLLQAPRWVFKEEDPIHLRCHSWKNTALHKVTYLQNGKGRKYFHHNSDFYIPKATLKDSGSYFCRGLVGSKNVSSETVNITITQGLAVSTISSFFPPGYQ

B1: F3'-1602 TriNKET (bispecific antibody, human IgG1, kappa)
chain: QLQLQESGPGLVKPSETLSLTCTVSGFSLTNYGLHWIRQPPGKCLEWIGVIWSGGKTDYNPSLKSRVTISKDTSKNQFSLKLSSVQAADTAVYYCAKYDYDDSLDYWGQGTLVTVSSGGGGSGGGGSGGGGSGGGGSDIQMTQSPSSLSASVGDRVTITCHASQNINFWLSWYQQKPGKAPKLLIYEASNLHTGVPSRFSGSGSGTRFTLTISSLQPEDIATYYCQQSHSYPLTFGCGTKLEIKGSDKTHTCPPCPAPELLGGPSVFLFPPKPKDTLMISRTPEVTCVVVDVSHEDPEVKFNWYVDGVEVHNAKTKPREEQYNSTYRVVSVLTVLHQDWLNGKEYKCKVSNKALPAPIEKTISKAKGQPREPRVYTLPPCRDELTKNQVSLTCLVKGFYPSDIAVEWESNGQPENNYKTTPPVLVSDGSFTLYSKLTVDKSRWQQGNVFSCSVMHEALHNHYTQKSLSLSPG
heavy: EVQLVESGGGLVKPGGSLRLSCAASGFTFSSYSMNWVRQAPGKGLEWVSSISSSSSYIYYADSVKGRFTISRDNAKNSLYLQMNSLRAEDTAVYYCARGAPIGAAAGWFDPWGQGTLVTVSSASTKGPSVFPLAPSSKSTSGGTAALGCLVKDYFPEPVTVSWNSGALTSGVHTFPAVLQSSGLYSLSSVVTVPSSSLGTQTYICNVNHKPSNTKVDKKVEPKSCDKTHTCPPCPAPELLGGPSVFLFPPKPKDTLMISRTPEVTCVVVDVSHEDPEVKFNWYVDGVEVHNAKTKPREEQYNSTYRVVSVLTVLHQDWLNGKEYKCKVSNKALPAPIEKTISKAKGQPREPQVCTLPPSRDELTENQVSLTCLVKGFYPSDIAVEWESNGQPENNYKTTPPVLDSDGSFFLYSWLTVDKSRWQQGNVFSCSVMHEALHNHYTQKSLSLSPG
light: DIQMTQSPSSVSASVGDRVTITCRASQGISSWLAWYQQKPGKAPKLLIYAASSLQSGVPSRFSGSGSGTDFTLTISSLQPEDFATYYCQQGVSFPRTFGGGTKVEIKRTVAAPSVFIFPPSDEQLKSGTASVVCLLNNFYPREAKVQWKVDNALQSGNSQESVTEQDSKDSTYSLSSTLTLSKADYEKHKVYACEVTHQGLSSPVTKSFNRGEC
notes: Trispecific F3' format: CLEC12A scFv-Fc paired with NKG2D Fab-Fc; Stressed and control samples of the stability studies are the same molecule; also called AB0237
As for B1, the Kd in assay [1] was 831 nM and 825 nM and 931 nM and 769 nM; in [2], 710 nM; in [3] it was 695 nM; in assay [4], 919 nM.

B2: AB0192 TriNKET (other)
chain: EVQLVESGGGVVQPGGSLRLSCAASGFTFNAFGMHWVRQAPGKCLEWVAFISSGSTSIYYANTVKGRFTISRDNSKNTLYLQMNSLRAEDTAVYYCARDGYPTGGAMDYWGQGTSVTVSSGGGGSGGGGSGGGGSGGGGSDIQMTQSPSSLSASVGDRVTITCKASQDIYNYLSWFQQKPGKAPKPLIYRANILVSGVPSRFSGSGSGQDYTFTISSLQPEDIATYYCLQFDAFPFTFGCGTKLEIKGSDKTHTCPPCPAPELLGGPSVFLFPPKPKDTLMISRTPEVTCVVVDVSHEDPEVKFNWYVDGVEVHNAKTKPREEQYNSTYRVVSVLTVLHQDWLNGKEYKCKVSNKALPAPIEKTISKAKGQPREPRVYTLPPCRDELTKNQVSLTCLVKGFYPSDIAVEWESNGQPENNYKTTPPVLVSDGSFTLYSKLTVDKSRWQQGNVFSCSVMHEALHNHYTQKSLSLSPG
heavy: EVQLVESGGGLVKPGGSLRLSCAASGFTFSSYSMNWVRQAPGKGLEWVSSISSSSSYIYYADSVKGRFTISRDNAKNSLYLQMNSLRAEDTAVYYCARGAPIGAAAGWFDPWGQGTLVTVSSASTKGPSVFPLAPSSKSTSGGTAALGCLVKDYFPEPVTVSWNSGALTSGVHTFPAVLQSSGLYSLSSVVTVPSSSLGTQTYICNVNHKPSNTKVDKKVEPKSCDKTHTCPPCPAPELLGGPSVFLFPPKPKDTLMISRTPEVTCVVVDVSHEDPEVKFNWYVDGVEVHNAKTKPREEQYNSTYRVVSVLTVLHQDWLNGKEYKCKVSNKALPAPIEKTISKAKGQPREPQVCTLPPSRDELTENQVSLTCLVKGFYPSDIAVEWESNGQPENNYKTTPPVLDSDGSFFLYSWLTVDKSRWQQGNVFSCSVMHEALHNHYTQKSLSLSPG
light: DIQMTQSPSSVSASVGDRVTITCRASQGISSWLAWYQQKPGKAPKLLIYAASSLQSGVPSRFSGSGSGTDFTLTISSLQPEDFATYYCQQGVSFPRTFGGGTKVEIKRTVAAPSVFIFPPSDEQLKSGTASVVCLLNNFYPREAKVQWKVDNALQSGNSQESVTEQDSKDSTYSLSSTLTLSKADYEKHKVYACEVTHQGLSSPVTKSFNRGEC
notes: the condition stands under assay; also called AB0192 Lot AB0192-005
As for B2, the Kd in [5] is 6.1 nM and 5.5 nM and 3.5 nM; in [6], 1.68 nM; in assay [7], 588 nM; in assay [8] it was 171 nM; in assay [9], 612 nM; in assay [10], 162 nM. Moreover, the koff in assay [5] is 0.00029 s⁻¹ and 0.00026 s⁻¹ and 0.00018 s⁻¹; in assay [6], 0.00129 s⁻¹; in assay [7], 0.122 s⁻¹; in [8] it was 0.0199 s⁻¹; in assay [9], 0.119 s⁻¹; in assay [10] it was 0.0192 s⁻¹. Also, the kon was 47000 M⁻¹ s⁻¹ and 52000 M⁻¹ s⁻¹ in assay [5]; 771000 M⁻¹ s⁻¹ in [6]; 208000 M⁻¹ s⁻¹ in assay [7]; 117000 M⁻¹ s⁻¹ in assay [8]; 195000 M⁻¹ s⁻¹ in [9]; 119000 M⁻¹ s⁻¹ in assay [10].

For orientation: Kd means the constant that tells how readily two partners part at equilibrium. High values mean lower affinity, low ones higher affinity. As a reminder, the koff is a measure of how fast the partners let go of each other. The low end stands for slow dissociation, the high end for fast dissociation. One may read the kon as the second-order rate constant of association.
